Measured values: the Immune Epitope Database (IEDB)

Assays:
[1] = biological target: HLA-A*68:01; test: IEDB peptide-MHC binding, purified MHC/competitive/radioactivity; filed as Kd, often an IC50 or EC50 that approximates it; ≥ and ≤ were set here for values at or beyond the usual limits of such assays; conditions: source organism: SARS coronavirus Tor2
[2] = biological target: HLA-A*33:01; test: as above; conditions: source organism: SARS coronavirus Tor2
[3] = biological target: HLA-A*03:01; test: as above; conditions: source organism: SARS coronavirus Tor2
[4] = biological target: HLA-A*26:01; test: as above
[5] = biological target: HLA-A*01:01; test: as above
[6] = biological target: HLA-A*30:02; test: as above
[7] = biological target: HLA-A*29:02; test: as above
[8] = biological target: HLA-A*23:01; test: as above
[9] = biological target: HLA-A*24:02; test: as above
[10] = biological target: HLA-A*11:01; test: as above; conditions: source organism: SARS coronavirus Tor2
[11] = biological target: HLA-A*31:01; test: as above; conditions: source organism: SARS coronavirus Tor2
[12] = biological target: HLA-A*32:01; test: as above
[13] = biological target: HLA-A*02:01; test: IEDB peptide-MHC binding, purified MHC/competitive/fluorescence; ≥ and ≤ were set here for values at or beyond the usual limits of such assays
[14] = biological target: HLA-A*69:01; test: IEDB peptide-MHC binding, purified MHC/direct/fluorescence; filed as Kd, often an IC50 or EC50 that approximates it; ≥ and ≤ were set here for values at or beyond the usual limits of such assays
[15] = biological target: HLA-A*02:01; test: as above
[16] = biological target: HLA-B*15:01; test: as above
[17] = biological target: HLA-B*07:02; test: as above
[18] = biological target: HLA-B*58:01; test: as above; conditions: source organism: Pasteurella multocida
[19] = biological target: HLA-A*03:01; test: as above; conditions: source organism: Pasteurella multocida
[20] = biological target: HLA-A*11:01; test: as above; conditions: source organism: SARS-CoV1
[21] = source organism: SARS coronavirus Tor2
[22] = source organism: Vaccinia virus WR
[23] = source organism: Zaire ebolavirus
[24] = source organism: Lassa virus Josiah
[25] = source organism: Dengue virus 1 Singapore/S275/1990
[26] = source organism: Rickettsia conorii
[27] = source organism: Mammarenavirus guanaritoense
[28] = source organism: Vibrio vulnificus YJ016
[29] = source organism: Haemophilus influenzae
[30] = source organism: Mammarenavirus whitewaterense
[31] = source organism: Pasteurella multocida

Row | Sequence | Kd [4, 21] [nM] | Kd [5, 21] [nM] | Kd [6, 21] [nM] | Kd [7, 21] [nM] | Kd [8, 21] [nM] | Kd [9, 21] [nM] | other results
1 | STGNYNYKY | 15600 | 388 | 24.5 | 37.2 | ≥ 77800 | ≥ 77600 | Kd [1]: 1600 nM; Kd [2]: ≥ 77700 nM; Kd [3]: ≥ 20400 nM; Kd [10]: 198 nM; Kd [11]: ≥ 77900 nM
2 | HTILYNNTI | – | – | – | – | – | – | Kd [12, 22]: 1.88 nM
3 | QFLLQLNET | – | – | – | – | – | – | IC50 [13, 23]: 16100 nM
4 | KLDISEATQ | – | – | – | – | – | – | IC50 [13, 23]: ≥ 96700 nM
5 | MGLDKGWPIS | – | – | – | – | – | – | Kd ([12]; source organism: Dengue virus 1 Brazil/97-11/1997): 10100 nM
6 | KCWLVSNGSY | – | – | – | – | – | – | Kd [4, 24]: ≥ 69700 nM; Kd [5, 24]: 11500 nM; Kd [6, 24]: 11.4 nM; Kd [7, 24]: 1530 nM; Kd [8, 24]: ≥ 70000 nM; Kd [9, 24]: ≥ 70300 nM
7 | ELDHLGLDD | – | – | – | – | – | – | IC50 [13, 23]: ≥ 513000 nM
8 | IMLVYCFLGY | ≥ 42700 | ≥ 31500 | 211 | 3.05 | ≥ 70000 | ≥ 70300 | –
9 | EYPIIGDEL | ≥ 77900 | ≥ 78100 | 1330 | 176 | 16200 | 14100 | –
10 | KGEDGCWYGM | – | – | – | – | – | – | Kd [12, 25]: 1880 nM
11 | YFSDVSAPV | – | – | – | – | – | – | Kd [14, 26]: 41 nM; Kd [15, 26]: 27.9 nM; Kd [16, 26]: 704 nM
12 | QLLLMRTSW | – | – | – | – | – | – | Kd ([12]; source organism: Dengue virus 3 Martinique/1243/1999): 10.4 nM
13 | AMVRMYIFF | 7440 | 18700 | ≥ 71100 | 452 | 214 | 4460 | –
14 | FLLRRWGGT | – | – | – | – | – | – | IC50 ([13]; source organism: Sudan ebolavirus): 2020 nM
15 | SFKVGHHTNF | – | – | – | – | – | – | Kd [7, 27]: 814 nM; Kd [8, 27]: 1320 nM; Kd [9, 27]: 11000 nM
16 | ASFYYIWKSY | 2100 | 3110 | 0.481 | 71.4 | ≥ 32100 | ≥ 28600 | –

Row | Sequence | Kd [4, 21] [nM] | Kd [5, 21] [nM] | Kd [6, 21] [nM] | Kd [7, 21] [nM] | Kd [8, 21] [nM] | Kd [9, 21] [nM] | other results
17 | SNAKCIEYV | – | – | – | – | – | – | IC50 ([13]; source organism: Vaccinia virus Copenhagen): 53600 nM
18 | VYSDVETPHL | ≥ 69700 | 303 | 16100 | 589 | 163 | 245 | –
19 | MEVTARWLWG | – | – | – | – | – | – | Kd [12, 25]: 3720 nM
20 | CTFLLNKEMY | 9380 | 793 | 412 | 789 | ≥ 70000 | ≥ 70300 | –
21 | SLGGHTVWQ | – | – | – | – | – | – | Kd [14, 28]: ≥ 20000 nM; Kd [15, 28]: 8000 nM
22 | EFSSNVANY | 2900 | 11200 | 828 | 703 | ≥ 77800 | ≥ 32200 | –
23 | HTLSIHDGY | 16 | 1500 | 0.411 | 1.79 | ≥ 77800 | ≥ 77600 | –
24 | TLVGVVVST | – | – | – | – | – | – | IC50 ([13]; source organism: Vaccinia virus): 55400 nM
25 | LMINNMHSI | – | – | – | – | – | – | Kd [12, 22]: 13800 nM
26 | AILGVLATL | – | – | – | – | – | – | Kd [17, 29]: 12700 nM; Kd [14, 29]: 238 nM; Kd [15, 29]: 316 nM; Kd [16, 29]: 18500 nM
27 | ITYEKSNNI | – | – | – | – | – | – | Kd [12, 22]: 17.5 nM
28 | SYKIGHHVEL | – | – | – | – | – | – | Kd [7, 30]: ≥ 56900 nM; Kd [8, 30]: 15900 nM; Kd [9, 30]: 12900 nM
29 | ILYVSCNPA | – | – | – | – | – | – | Kd [18]: 572 nM; Kd [14, 31]: 572 nM; Kd [19]: 402 nM; Kd [16, 31]: 748 nM
30 | GYRFFNKTL | – | – | – | – | – | – | Kd [7, 27]: 3590 nM; Kd [8, 27]: 210 nM; Kd [9, 27]: 1190 nM
31 | TPSGTWLTY | 18600 | ≥ 79400 | 11800 | 55.5 | ≥ 77800 | ≥ 77600 | Kd ([17]; source organism: SARS-CoV1): 7020 nM; Kd [20]: 4570 nM
